Experimental data from patent US20150011730A1.

Assays:
[1] = biological target: CDK2/cyclin A (as used in the binding assay) (UniProt P24941)
[2] = biological target: CDK4/cyclin D1 (as used in the binding assay) (UniProt P11802)
Sequence of CDK4/cyclin D1 (as used in the binding assay) (P11802 whole entry, chain 1 of 2): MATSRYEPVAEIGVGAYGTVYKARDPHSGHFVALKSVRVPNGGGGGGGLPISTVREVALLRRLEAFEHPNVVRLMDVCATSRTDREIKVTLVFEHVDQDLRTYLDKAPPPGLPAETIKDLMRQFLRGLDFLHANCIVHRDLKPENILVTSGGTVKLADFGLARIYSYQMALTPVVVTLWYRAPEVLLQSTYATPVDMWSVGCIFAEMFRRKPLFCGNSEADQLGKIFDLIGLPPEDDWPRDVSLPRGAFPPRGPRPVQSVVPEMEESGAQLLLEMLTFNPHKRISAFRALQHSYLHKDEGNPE
Sequence of CDK4/cyclin D1 (as used in the binding assay) (P24385 whole entry, chain 2 of 2, further chain): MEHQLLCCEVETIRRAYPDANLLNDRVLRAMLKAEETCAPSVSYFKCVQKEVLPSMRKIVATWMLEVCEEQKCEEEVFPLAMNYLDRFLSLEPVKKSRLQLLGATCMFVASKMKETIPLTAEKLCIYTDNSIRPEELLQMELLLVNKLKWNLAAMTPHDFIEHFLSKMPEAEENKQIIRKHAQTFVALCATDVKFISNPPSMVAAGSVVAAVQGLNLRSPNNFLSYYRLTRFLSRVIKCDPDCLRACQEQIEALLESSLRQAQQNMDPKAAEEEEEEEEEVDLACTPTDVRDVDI

| IC50 [1] [nM] | IC50 [2] [µM] | Substance |
| --- | --- | --- |
| 505 | 61.2 | R{bLeu}NMeF (peptide) |
| 405 | 89.7 | R{bLeu}NMeF-NH2 (peptide) |
